T1: granulocyte colony-stimulating factor receptor (G-CSFR) (human, UniProt Q99062 25-621, limits assumed)
T1 construct: also called GCSF receptor; G-CSF receptor
T1 sequence (looked up): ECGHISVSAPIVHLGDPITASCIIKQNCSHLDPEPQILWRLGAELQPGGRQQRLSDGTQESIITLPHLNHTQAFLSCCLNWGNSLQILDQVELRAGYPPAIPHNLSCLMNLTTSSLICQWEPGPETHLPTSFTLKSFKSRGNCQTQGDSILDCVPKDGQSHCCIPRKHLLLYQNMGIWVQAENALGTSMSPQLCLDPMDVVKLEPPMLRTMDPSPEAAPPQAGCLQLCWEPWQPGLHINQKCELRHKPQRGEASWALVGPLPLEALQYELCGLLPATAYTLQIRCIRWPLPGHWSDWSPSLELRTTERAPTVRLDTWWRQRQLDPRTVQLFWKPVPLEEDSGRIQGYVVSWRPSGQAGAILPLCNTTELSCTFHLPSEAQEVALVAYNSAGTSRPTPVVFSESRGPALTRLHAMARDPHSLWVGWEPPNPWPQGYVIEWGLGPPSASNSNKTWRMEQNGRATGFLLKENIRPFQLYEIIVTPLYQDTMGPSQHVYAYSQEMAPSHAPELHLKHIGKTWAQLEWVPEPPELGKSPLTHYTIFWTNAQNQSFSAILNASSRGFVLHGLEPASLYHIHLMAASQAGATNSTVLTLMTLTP


Key:
[1] = biological target: T1, granulocyte colony-stimulating factor …; assay: SPR (Biacore CM5), G-CSFR immobilised; KD divided by KD of Filgrastim RS
Experimental: (§1) In this example, G-CSFR (GCSF receptors) were immobilized onto the Sensor Chip CM5 (Biacore, trademarked) as the ligand. In each testing samples, Filgrastim RS (reference standard), MetHuG-CSF, and mPEG-MetHuG-CSF, as the analyte, were flowed through the ligand on CM5 chip respectively. The titration range of test sample analytes used in the assay was 40.5, 20.2, […], 10.1, 5.1, 2.5, 1.3 and 0.6 nM. Formulation buffers of testing samples were also tested as negative controls. The binding between the ligand and the analyte was monitored through SPR sensorgram. As slow-on and slow-off sensorgrams were observed, the kinetics fit model (“1:1 binding”) was used to obtain association constant (ka) and dissociation constant (kd), and KD was calculated by kd/ka.
(§2) In Table 6 below, KD values of three testing samples towards G-CSFR were determined by SPR and summarized in the unit of molar concentration (M). For the KD ratio, the KD value of each testing sample was normalized with KD of Filgrastim RS.

[2] = biological target: T1, granulocyte colony-stimulating factor …; assay: SPR (Biacore CM5), G-CSFR immobilised, analyte in flow, 1:1 kinetic fit
Experimental: as §1

[3] = biological target: T1, granulocyte colony-stimulating factor …; assay: SPR (Biacore CM5), G-CSFR immobilised, analyte in flow, 1:1 kinetic fit, KD = kd/ka
Experimental: as §1

[4] = biological target: T1, granulocyte colony-stimulating factor …; assay: SPR (Biacore CM5), G-CSFR immobilised; this sample is the reference itself
Experimental: as §1, §2

KD ratio (normalised to Filgrastim RS) [1] | koff [2] | kon [2] | Kd [3] | KD ratio (normalised to Filgrastim RS) [4] | Binder
1.65 | 0.000401 s⁻¹ | 408000 M⁻¹ s⁻¹ | 982 pM |  | mPEG-MetHuG-CSF (ligand, branched mPEG (two arms, each about 19-23 KDa; 40K-mPEG-aldehyde) covalently attached by amine linkage to the N-terminal Met (residue 1), also called P2203) MTPLGPASSLPQSFLLKCLEQVRKIQGDGAALQEKLCATYKLCHPEELVLLGHSLGIPWAPLSSCPSQALQLAGCLSQLHSGLFLYQGLLQALEGISPELGPTLDTLQLDVADFATTIWQQMEELGMAPALQPTQGAMPAFASAFQRRAGGVLVASHLQSFLEVSYRVLRHLAQP
1.2 | 0.000469 s⁻¹ | 657000 M⁻¹ s⁻¹ | 713 pM |  | MetHuG-CSF (ligand, 175 aa: the 174 aa human G-CSF plus an N-terminal Met; also called MetHuG-CSF intermediate; human G-CSF with additional N-terminal Met) MTPLGPASSLPQSFLLKCLEQVRKIQGDGAALQEKLCATYKLCHPEELVLLGHSLGIPWAPLSSCPSQALQLAGCLSQLHSGLFLYQGLLQALEGISPELGPTLDTLQLDVADFATTIWQQMEELGMAPALQPTQGAMPAFASAFQRRAGGVLVASHLQSFLEVSYRVLRHLAQP
 | 0.000444 s⁻¹ | 747000 M⁻¹ s⁻¹ | 595 pM | 1 | Filgrastim Reference Standard (ligand, human, UniProt P09919-2 31-204, looked up, also called Filgrastim RS) TPLGPASSLPQSFLLKCLEQVRKIQGDGAALQEKLCATYKLCHPEELVLLGHSLGIPWAPLSSCPSQALQLAGCLSQLHSGLFLYQGLLQALEGISPELGPTLDTLQLDVADFATTIWQQMEELGMAPALQPTQGAMPAFASAFQRRAGGVLVASHLQSFLEVSYRVLRHLAQP

Source: patent publication US20250269045A1 (PHARMAESSENTIA, published 2025)
